No end group written: not given here.
Legend:
[1] = biological target: LRP5 (as used in Example 11) (UniProt O75197 32-1615, limits assumed); assay: competition with 125I-Mesd for LRP5
[2] = biological target: LRP6 (as used in Example 11) (UniProt O75581 20-1613, limits assumed); assay: competition with 125I-DKK1 for LRP6
[3] = biological target: T1, HA-tagged LRP6 on LRP6-transduced HT1080 cells (UniProt O75581 20-1613, limits assumed); assay: 125I-Mesd saturation binding to LRP6-transduced HT1080 cells, 3 h at 4 C, Scatchard analysis
T1 construct: whole, on cells; the only LRP6 cDNA named in the materials is human; also called mature LRP6 at the cell surface; cell surface LRP6; not shown: HA tag
Protocol: To examine whether Mesd binds with high affinity to most members of the LDLR family at the cell surface, we performed cell surface ligand binding experiments with cells stably transduced with LRP6 cDNA. Human HT1080 cells, which express undetectable levels of LRP6, were transduced with a viral vector alone (pLNCX2) or with vector containing LRP6 cDNA (Li, Y., Oncogene 23: 9129-9135, 2004) and used for ¹²⁵I-Mesd binding (FIG. 1A). ¹²⁵I-Mesd (5 nM) reached maximal binding after 2 hours incubation at 4° C. with LRP6-expressing HT1080 cells (FIG. 1A). Inclusion of excess unlabeled Mesd (500 nM) completely eliminated this binding.
(A) Time course of ¹²⁵I-Mesd (5 nM) binding to LRP6-transduced HT1080 cells and the control cells. Assay was carried out for the indicated periods at 4° C. in the absence (total) or presence of 500 nM Mesd (non-specific). (B) Saturation binding of ¹²⁵I-Mesd to LRP6-transduced HT1080 cells and the control cells. Assay was carried out at indicated concentrations for 3 hours at 4° C. in the absence (total) or presence (non-specific) of 500 nM Mesd. (C) Scatchard plots of data in B. All values are the average of triple determinations with the s.d. indicated by error bars.

[4] = biological target: T1, HA-tagged LRP6 on LRP6-transduced …; assay: conditioned medium on LRP6-transduced HT1080 cells, anti-Myc immunofluorescence
Protocol: To facilitate immunodetection, a c-Myc epitope was included at the C-terminus. The integrity of the subcloned DNA sequence was confirmed by DNA sequencing. Human DKK1-conditioned media were produced by transient transfection of HEK293 cells with pcDNADKK1-Myc in serum-free medium, and allowed to bind to LRP6-transduced HT1080 cells and control cells at room temperature for 60 minutes in the absence or presence of 1 μM Mesd. Cells were then fixed in 4% paraformaldehyde, labeled with anti-Myc monoclonal antibody and detected with Alexa-488 goat anti-mouse IgG. The immunofluorescence was detected by a laser-scanning confocal microscope (Olympus Fluoview 500).
RAP is a receptor antagonist for members of the LDLR family, and is able to inhibit the binding of most known ligands of the LDLR family members. DKK1 is an LRP6-specific ligand and antagonist. […] In these experiments, Serum-free conditioned medium was harvested from HEK293 cells transiently transfected with cDNA for human Myc-DKK1 and allowed to bind to LRP6-transduced HT1080 cells (B,C) and control cells (A) in the absence (A,B) or presence (C) of 1 μM Mesd. Cell-surface-bound Myc-tagged DKK proteins were fixed and detected by immunofluorescence staining with anti-Myc antibody. (D) DKK1 binding to cell surface LRP6 is inhibited by Mesd. […] (E) LRP6-mediated DKK1 degradation is inhibited by Mesd. […]

[5] = biological target: T1, HA-tagged LRP6 on LRP6-transduced …; assay: 125I-DKK1 (5 nM) binding to LRP6-transduced HT1080 cells, 3 h at 4 C
Protocol: RAP is a receptor antagonist for members of the LDLR family, and is able to inhibit the binding of most known ligands of the LDLR family members. DKK1 is an LRP6-specific ligand and antagonist. […] In these experiments, Serum-free conditioned medium was harvested from HEK293 cells transiently transfected with cDNA for human Myc-DKK1 and allowed to bind to LRP6-transduced HT1080 cells (B,C) and control cells (A) in the absence (A,B) or presence (C) of 1 μM Mesd. Cell-surface-bound Myc-tagged DKK proteins were fixed and detected by immunofluorescence staining with anti-Myc antibody. (D) DKK1 binding to cell surface LRP6 is inhibited by Mesd. […] (E) LRP6-mediated DKK1 degradation is inhibited by Mesd. LRP6-mediated […] (5 nM) degradation was carried out for 4 hours at 37° C. in the absence or presence of 500 nM RAP or 500 nM Mesd. Values are the means of triple determinations with the s.d. indicated by error bars. Bar, 10 μm. As expected, Myc-tagged DKK1 binds to LRP6 cells (FIG. 9B) but not to the control cells (FIG. 9A).

[6] = biological target: T1, HA-tagged LRP6 on LRP6-transduced …; assay: binding of truncated Mesd mutant to cell surface LRP6
[7] = biological target: T1, HA-tagged LRP6 on LRP6-transduced …; assay: 125I-Mesd (150-195) (5 nM) binding to LRP6-transduced HT1080 cells, 3 h at 4 C
Protocol: In this example, a truncated Mesd mutant containing the last 45 amino acids of C-terminal region was generated (FIG. 3A) and its binding affinity for LRP6 was then analyzed. […] (A) Binding analyses of ¹²⁵I-Mesd and its mutant Mesd (150-195) (5 nM) to LRP6-transduced HT1080 cells and control cells. (B) Binding analyses of ¹²⁵I-Mesd and its mutant Mesd (150-195) (5 nM) to LRP6-transduced HT1080 cells. Assays were carried out for 3 hours at 4° C. in the absence or presence of 500 nM Mesd or its mutant. Values are the means of triple determinations with the s.d. indicated by error bars.

T1 sequence (O75581 20-1613 limits assumed): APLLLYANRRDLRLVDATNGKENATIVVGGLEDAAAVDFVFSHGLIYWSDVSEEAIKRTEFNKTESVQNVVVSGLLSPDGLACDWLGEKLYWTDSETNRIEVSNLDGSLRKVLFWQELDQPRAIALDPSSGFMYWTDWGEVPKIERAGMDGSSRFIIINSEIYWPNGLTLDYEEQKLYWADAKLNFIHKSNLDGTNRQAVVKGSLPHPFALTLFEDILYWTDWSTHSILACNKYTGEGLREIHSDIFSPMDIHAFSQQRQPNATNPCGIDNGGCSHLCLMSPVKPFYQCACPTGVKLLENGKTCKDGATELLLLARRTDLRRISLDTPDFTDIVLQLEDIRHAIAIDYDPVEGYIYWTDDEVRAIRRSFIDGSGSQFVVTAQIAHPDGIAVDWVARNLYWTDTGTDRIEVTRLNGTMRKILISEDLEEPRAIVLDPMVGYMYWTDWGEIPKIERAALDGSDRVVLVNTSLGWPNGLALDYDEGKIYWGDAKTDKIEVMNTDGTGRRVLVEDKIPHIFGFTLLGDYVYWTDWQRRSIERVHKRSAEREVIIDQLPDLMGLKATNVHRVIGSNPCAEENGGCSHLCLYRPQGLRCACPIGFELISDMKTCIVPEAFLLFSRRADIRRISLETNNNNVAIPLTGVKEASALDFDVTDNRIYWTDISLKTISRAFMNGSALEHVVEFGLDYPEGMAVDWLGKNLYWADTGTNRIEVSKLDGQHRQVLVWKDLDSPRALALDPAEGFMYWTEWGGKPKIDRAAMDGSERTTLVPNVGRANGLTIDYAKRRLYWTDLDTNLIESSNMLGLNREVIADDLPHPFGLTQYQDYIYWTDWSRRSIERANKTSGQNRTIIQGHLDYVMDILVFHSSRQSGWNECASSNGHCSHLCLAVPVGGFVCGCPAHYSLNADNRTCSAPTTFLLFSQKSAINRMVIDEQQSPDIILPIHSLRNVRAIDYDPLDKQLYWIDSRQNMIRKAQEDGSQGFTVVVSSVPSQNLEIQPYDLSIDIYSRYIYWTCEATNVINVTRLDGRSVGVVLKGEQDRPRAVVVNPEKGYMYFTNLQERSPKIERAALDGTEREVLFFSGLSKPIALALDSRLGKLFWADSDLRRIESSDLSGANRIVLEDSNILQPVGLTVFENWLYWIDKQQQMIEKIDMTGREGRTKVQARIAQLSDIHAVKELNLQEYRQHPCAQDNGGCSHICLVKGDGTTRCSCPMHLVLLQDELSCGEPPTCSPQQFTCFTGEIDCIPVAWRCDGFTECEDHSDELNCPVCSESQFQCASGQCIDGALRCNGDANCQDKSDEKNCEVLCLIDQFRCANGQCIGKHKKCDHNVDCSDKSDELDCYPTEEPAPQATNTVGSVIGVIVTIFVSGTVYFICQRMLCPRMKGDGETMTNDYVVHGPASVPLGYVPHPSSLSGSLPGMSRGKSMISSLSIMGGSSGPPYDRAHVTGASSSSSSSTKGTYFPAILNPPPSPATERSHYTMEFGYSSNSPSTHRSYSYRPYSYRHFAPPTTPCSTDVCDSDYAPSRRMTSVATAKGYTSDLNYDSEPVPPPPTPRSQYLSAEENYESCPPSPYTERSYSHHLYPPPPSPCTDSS
Sequence of LRP6 (as used in Example 11) (O75581 20-1613 limits assumed): as above
Sequence of LRP5 (as used in Example 11) (O75197 32-1615 limits assumed): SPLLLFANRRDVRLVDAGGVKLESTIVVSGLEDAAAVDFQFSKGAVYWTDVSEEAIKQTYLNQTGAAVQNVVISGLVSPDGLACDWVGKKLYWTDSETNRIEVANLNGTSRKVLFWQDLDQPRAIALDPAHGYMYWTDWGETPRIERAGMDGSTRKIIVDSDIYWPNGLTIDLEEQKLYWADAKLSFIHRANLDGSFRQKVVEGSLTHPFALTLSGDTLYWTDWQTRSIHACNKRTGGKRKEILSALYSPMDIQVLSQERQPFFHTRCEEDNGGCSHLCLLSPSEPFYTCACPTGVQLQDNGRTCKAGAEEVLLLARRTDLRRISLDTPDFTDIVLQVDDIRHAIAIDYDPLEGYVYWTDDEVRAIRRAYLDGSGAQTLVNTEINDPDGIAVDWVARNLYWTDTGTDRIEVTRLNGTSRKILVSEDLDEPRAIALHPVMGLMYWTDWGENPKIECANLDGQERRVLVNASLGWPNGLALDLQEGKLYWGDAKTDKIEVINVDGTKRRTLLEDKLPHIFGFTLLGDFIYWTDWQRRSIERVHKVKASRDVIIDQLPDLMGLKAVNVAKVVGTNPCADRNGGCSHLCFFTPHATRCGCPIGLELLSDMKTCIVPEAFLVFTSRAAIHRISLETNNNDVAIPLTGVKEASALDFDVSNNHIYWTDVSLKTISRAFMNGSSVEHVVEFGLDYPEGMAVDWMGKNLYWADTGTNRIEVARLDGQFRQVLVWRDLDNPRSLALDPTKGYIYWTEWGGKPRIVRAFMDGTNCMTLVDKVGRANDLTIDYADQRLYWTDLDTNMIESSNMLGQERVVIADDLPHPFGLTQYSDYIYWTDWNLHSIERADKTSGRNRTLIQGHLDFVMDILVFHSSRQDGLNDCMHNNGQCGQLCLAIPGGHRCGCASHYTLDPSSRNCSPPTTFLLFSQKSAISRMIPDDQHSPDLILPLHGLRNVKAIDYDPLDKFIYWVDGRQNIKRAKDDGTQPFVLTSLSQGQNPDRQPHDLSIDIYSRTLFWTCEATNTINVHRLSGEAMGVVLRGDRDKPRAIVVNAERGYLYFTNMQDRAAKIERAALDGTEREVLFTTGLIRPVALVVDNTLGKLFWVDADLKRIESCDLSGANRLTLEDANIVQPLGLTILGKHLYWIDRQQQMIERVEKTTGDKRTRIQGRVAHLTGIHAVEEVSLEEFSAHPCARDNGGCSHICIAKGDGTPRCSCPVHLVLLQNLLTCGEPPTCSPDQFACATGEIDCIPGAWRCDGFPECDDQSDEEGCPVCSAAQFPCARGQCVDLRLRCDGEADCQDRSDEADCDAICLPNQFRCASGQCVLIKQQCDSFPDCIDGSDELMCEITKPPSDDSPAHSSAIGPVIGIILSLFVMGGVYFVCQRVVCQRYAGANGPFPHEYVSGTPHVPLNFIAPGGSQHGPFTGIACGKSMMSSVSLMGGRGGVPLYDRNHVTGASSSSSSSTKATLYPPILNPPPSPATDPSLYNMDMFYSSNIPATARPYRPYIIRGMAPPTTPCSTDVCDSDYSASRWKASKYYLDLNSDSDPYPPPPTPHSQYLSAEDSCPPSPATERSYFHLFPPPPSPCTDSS

B1: Mesd oligopeptide KGGGSKEKNKTKPEKAKKKEGDPKPRASKEDNRAGSR (peptide)
peptide: KGGGSKEKNKTKPEKAKKKEGDPKPRASKEDNRAGSR
notes: also called the oligopeptide
[1]
  fold reduction of 125I-Mesd binding: ~10 fold
[2]
  fold reduction of 125I-DKK1 binding: > 2 fold

B2: recombinant mouse Mesd protein (wild type) (other, not shown: small tags and cut ends)
chain: ADTPGEATPPPRKKKDIRDYNDADMARLLEQWEKDDDIEEGDLPEHKRPSAPIDFSKLDPGKPESILKMTKKGKTLMMFVTVSGNPTEKETEEITSLWQGSLFNANYDVQRFIVGSDRAIFMLRDGSYAWEIKDFLVSQDRCAEVTLEGQMYPGKGGGSKEKNKTKPEKAKKKEGDRKPRASKEDNRAGSRREDL
modifications: 125I-labelled (IODO-GEN method) where used as tracer
notes: Expressed in E. coli BL21(DE3) from pET-30a(+); 'All the recombinant Mesd proteins lack the Mesd signal peptide'; also called Mesd polypeptide
[3]
  Kd: ~3.3 nM
[1]
  fold reduction of 125I-Mesd binding: ~10 fold
[2]
  fold reduction of 125I-DKK1 binding: > 2 fold

B3: human Myc-tagged DKK1 (conditioned medium of HEK293 cells) (ligand, UniProt O94907 32-266, looked up, not shown: small tags and cut ends)
chain: TLNSVLNSNAIKNLPPPLGGAAGHPGSAVSAAPGILYPGGNKYQTIDNYQPYPCAEDEECGTDEYCASPTRGGDAGVQICLACRKRRKRCMRHAMCCPGNYCKNGICVSSDQNHFRGEIEETITESFGNDHSTLDGYSRRTTLSSKMYHTKGQEGSVCLRSSDCASGLCCARHFWSKICKPVLKEGQVCTKHRRKGSHGLEIFQRCYCGEGLSCRIQKDHHQASNSSRLHTCQRH
notes: also called Myc-DKK1; DKK1-Myc
[4]
  binding result: binds

B4: human recombinant DKK1 protein (ligand, UniProt O94907 32-266, looked up)
chain: B3 chain
modifications: 125I-labelled (IODO-GEN method)
notes: Bought
[5]
  binding result: binds

B5: Mesd (12-155) (other)
chain: RKKKDIRDYNDADMARLLEQWEKDDDIEEGDLPEHKRPSAPIDFSKLDPGKPESILKMTKKGKTLMMFVTVSGNPTEKETEEITSLWQGSLFNANYDVQRFIVGSDRAIFMLRDGSYAWEIKDFLVSQDRCAEVTLEGQMYPGK
notes: also called truncated Mesd mutant lacking both the N-terminal and C-terminal regions; not shown: N-terminal polyhistidine tail from pET-30a(+)
[6]
  binding result: no binding

B6: Mesd (150-195) (peptide)
chain: QMYPGKGGGSKEKNKTKPEKAKKKEGDPKPRASKEDNRAGSRREDL
modifications: also: 125I-labelled where used as tracer
notes: also called truncated Mesd mutant containing the last 45 amino acids of C-terminal region; Mesd (150-195) peptide; not shown: N-terminal polyhistidine tail from pET-30a(+) if made like the other recombinant Mesd mutants
[7]
  binding result: binds

B7: Mesd (12-195) (other)
chain: RKKKDIRDYNDADMARLLEQWEKDDDIEEGDLPEHKRPSAPIDFSKLDPGKPESILKMTKKGKTLMMFVTVSGNPTEKETEEITSLWQGSLFNANYDVQRFIVGSDRAIFMLRDGSYAWEIKDFLVSQDRCAEVTLEGQMYPGKGGGSKEKNKTKPEKAKKKEGDRKPRASKEDNRAGSRREDL
notes: also called truncated Mesd mutant lacking the N-terminal region; not shown: N-terminal polyhistidine tail from pET-30a(+)
[6]
  binding result: binds
